# Results from the RNAGym collection of RNA variant scans (doi:10.1093/molbev/msab373).
# B1: Azoarcus group I ribozyme (parent)
# chain: GUGCCUUGCGCCGGGAAACCACGCAAGGGAUGGUGUCAAAUUCGGCGAAACCUAAGCGCCCGCCCGGGCGUAUGGCAACGCCGAGCCAAGCUUCGGCGCCUGCGCCGAUGAAGGUGUAGAGACUAGACGGCACCCACCUAAGGCAAACGCUAUGGUGAAGGCAUAGUCCAGGGAGUGGCGAAAGUCACACAAACCGG
# Variants of: B1
# Assay: reverse-splicing fitness (ratio to wild type); higher = more active; in vitro selection; Mg2+ level not given
# In short: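 An in vitro group I ribozyme library with randomized positions was T7-transcribed and gel-purified. In triplicate, 10 pmol RNA in EPPS pH 7.5 was reacted with 50 pmoles of a 30-nt RNA substrate for 1 h at 37 °C across several added MgCl2 levels (1–48 mM), then stopped with EDTA. Products were reverse transcribed from a substrate-complementary primer, PCR-amplified and sequenced (HiSeq 4000). Fitness is a variant's read proportion after selection over that before, normalised to wild type.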
row,Variant,reverse-splicing fitness
1,C82A A111U A145U C150A C169G U176C,0.0188
2,C82A A111U A145U C150A C169G U176A,0.0157
3,C82A A111U A145U C150A C169G U176G,0.00712
4,C82A A111U A145U C150G C169G U176C,0.00625
5,C82A A111U A145U C150G C169G U176G,0.00651
6,C82A A111U A145U C150G C169G U176A,0.00742
7,C82A A111U C150A C169A,0.0117
8,C82A A111U C150A C169U,0.0125
9,C82A A111U C150A C169G,0.00884
10,C82A A111U A145U C150G U176A,0.01
11,C82A A111U A145U C150G U176C,0.0189
12,C82A A111U A145U C150G U176G,0.00528
13,C82A A111U C150U U176A,0.0473
14,C82A A111U C150U U176G,0.0161
15,C82A A111U C150U U176C,0.0751
16,C82A A111U A145U C150U U176C,0.0933
17,C82A A111U A145U C150U U176A,0.0636
18,C82A A111U A145U C150U U176G,0.0184
19,C82A A111U C169U U176C,0.0132
20,C82A A111U C169U U176A,0.0152
21,C82A A111U C169U U176G,0.00671

row,Variant,reverse-splicing fitness
1,C82A A111U C150G C169A U176A,0.0116
2,C82A A111U C150G C169A U176C,0.0105
3,C82A A111U C150G C169A U176G,0.00757
4,C82A A111U A145U C150G C169A U176C,0.0109
5,C82A A111U A145U C150G C169A U176A,0.0106
6,C82A A111U A145U C150G C169A U176G,0.00651
7,C82A A111U A145G C150U U176C,0.115
8,C82A A111U A145G C150U U176G,0.0191
9,C82A A111U A145U C150G C169U U176G,0.00727
10,C82A A111U A145U C150G C169U U176A,0.00775
11,C82A A111U A145U C150G C169U U176C,0.0122
12,C82A A111U A145U C169A U176C,0.0114
13,C82A A111U A145U C169A U176A,0.012
14,C82A A111U A145U C169A U176G,0.00655
15,C82A A111U C150A U176C,0.0292
16,C82A A111U C150A U176A,0.0197
17,C82A A111U C150A U176G,0.00995
18,C82A A111U C150U C169A U176G,0.00786
19,C82A A111U C150U C169A U176A,0.0158
20,C82A A111U C150U C169A U176C,0.015
21,C82A A120C A145C C150A C169A,0.00995

row,Variant,reverse-splicing fitness
1,C82A A120C A145C C150A C169U,0.00877
2,C82A A120C A145C C150A C169G,0.0078
3,C82A A111U C150U C169U,0.0124
4,C82A A111U C150U C169A,0.0102
5,C82A A111U C150U C169G,0.0102
6,C82A A111U A145U C150A C169A U176A,0.0158
7,C82A A111U A145U C150A C169A U176C,0.0138
8,C82A A111U A145U C150A C169A U176G,0.00765
9,C82A A111U C150G C169G U176A,0.00782
10,C82A A111U C150G C169G U176C,0.00482
11,C82A A111U C150G C169G U176G,0.00641
12,C82A A111U A145U C169G,0.00938
13,C82A A111U A145U C169A,0.00911
14,C82A A111U A145U C169U,0.0125
15,C82A A111U A145U C169G U176A,0.0127
16,C82A A111U A145U C169G U176C,0.0142
17,C82A A111U A145U C169G U176G,0.00625
18,C82A A111U A145G C169G U176C,0.0304
19,C82A A111U A145G C169G U176G,0.00674
20,C82A A111U A145G C169G U176A,0.023
21,C82A A111U A145G C169U U176G,0.00628

row,Variant,reverse-splicing fitness
1,C82A A111U A145G C169U U176A,0.0154
2,C82A A111U A145G C169U U176C,0.0157
3,C82A A111U A145G C169A U176C,0.0292
4,C82A A111U A145G C169A U176G,0.00574
5,C82A A111U A145G C169A U176A,0.0221
6,C82A A120C A145C C150A C169G U176C,0.0244
7,C82A A120C A145C C150A C169G U176A,0.032
8,C82A A120C A145C C150A C169G U176G,0.00625
9,C82A A120C A145C C150A U176C,0.0155
10,C82A A120C A145C C150A U176G,0.00599
11,C82A A120C A145C C150A U176A,0.0107
12,C82A A111U C169U,0.014
13,C82A A111U C169G,0.00884
14,C82A A111U C169A,0.00917
15,C82A A111U C150U C169U U176A,0.0146
16,C82A A111U C150U C169U U176G,0.00671
17,C82A A111U C150U C169U U176C,0.0146
18,C82A A120C A145C C150A C169A U176G,0.00574
19,C82A A120C A145C C150A C169A U176C,0.0102
20,C82A A120C A145C C150A C169A U176A,0.0195
